B1: Fc Fusion Molecule 6 (Fc fusion)
chain: DKTHTCPPCPAPELLGGPSVFLFPPKPKDTLYITREPEVTCVVVDVSHEDPEVKFNWYVDGVEVHNAKTKPREEQYNSTYRVVSVLTVLHQDWLNGKEYKCKVSNKALPAPIEKTISKAKGQPREPQVYTLPPSRDELTKNQVSLTCLVKGFYPSDIAVEWESNGQPENNYKTTPPVLDSDGSFFLYSKLTVDKSRWQQGNVFSCSVMHEALKFHYTQKSLSLSPGGGGGSEVQLLESGGGLVQPGGSLRLSCAASGFTFRSFGMSWVRQAPGKGPEWVSSISGSGSDTLYADSVKGRFTISRDNSKNTLYLQMNSLRPEDTAVYYCTIGGSLSRSSQGTLVTVSS
notes: Made in CHO cells; also called Efgart-G4S-ABD1
B2: Fc Fusion Molecule 5 (Fc fusion)
chain: EVQLLESGGGLVQPGGSLRLSCAASGFTFRSFGMSWVRQAPGKGPEWVSSISGSGSDTLYADSVKGRFTISRDNSKNTLYLQMNSLRPEDTAVYYCTIGGSLSRSSQGTLVTVSSGGGGSDKTHTCPPCPAPELLGGPSVFLFPPKPKDTLYITREPEVTCVVVDVSHEDPEVKFNWYVDGVEVHNAKTKPREEQYNSTYRVVSVLTVLHQDWLNGKEYKCKVSNKALPAPIEKTISKAKGQPREPQVYTLPPSRDELTKNQVSLTCLVKGFYPSDIAVEWESNGQPENNYKTTPPVLDSDGSFFLYSKLTVDKSRWQQGNVFSCSVMHEALKFHYTQKSLSLSPG
notes: Made in CHO cells; also called ABD1-G4S-Efgart
B3: Fc Fusion Molecule 11 (Fc fusion)
chain 1: EVQLLESGGGLVQPGGSLRLSCAASGFTFRSFGMSWVRQAPGKGPEWVSSISGSGSDTLYADSVKGRFTISRDNSKNTLYLQMNSLRPEDTAVYYCTIGGSLSRSSQGTLVTVSSGGGGSGGGGSGGGGSDKTHTCPPCPAPELLGGPSVFLFPPKPKDTLYITREPEVTCVVVDVSHEDPEVKFNWYVDGVEVHNAKTKPREEQYNSTYRVVSVLTVLHQDWLNGKEYKCKVSNKALPAPIEKTISKAKGQPREPQVCTLPPSRDELTKNQVSLSCAVKGFYPSDIAVEWESNGQPENNYKTTPPVLDSDGSFFLVSKLTVDKSRWQQGNVFSCSVMHEALKFHYTQKSLSLSPG
chain 2: DKTHTCPPCPAPELLGGPSVFLFPPKPKDTLYITREPEVTCVVVDVSHEDPEVKFNWYVDGVEVHNAKTKPREEQYNSTYRVVSVLTVLHQDWLNGKEYKCKVSNKALPAPIEKTISKAKGQPREPQVYTLPPCRDELTKNQVSLWCLVKGFYPSDIAVEWESNGQPENNYKTTPPVLDSDGSFFLYSKLTVDKSRWQQGNVFSCSVMHEALKFHYTQKSLSLSPG
notes: also called ABD1-(G4S)3-Efgart(KIH); ABD1-(G4S)3-Efgart(H)/Efgart(K)
B4: Fc Fusion Molecule 12 (Fc fusion)
chain 1: DKTHTCPPCPAPELLGGPSVFLFPPKPKDTLYITREPEVTCVVVDVSHEDPEVKFNWYVDGVEVHNAKTKPREEQYNSTYRVVSVLTVLHQDWLNGKEYKCKVSNKALPAPIEKTISKAKGQPREPQVCTLPPSRDELTKNQVSLSCAVKGFYPSDIAVEWESNGQPENNYKTTPPVLDSDGSFFLVSKLTVDKSRWQQGNVFSCSVMHEALKFHYTQKSLSLSPGGGGGSGGGGSGGGGSEVQLLESGGGLVQPGGSLRLSCAASGFTFRSFGMSWVRQAPGKGPEWVSSISGSGSDTLYADSVKGRFTISRDNSKNTLYLQMNSLRPEDTAVYYCTIGGSLSRSSQGTLVTVSS
chain 2: B3 chain 2
notes: also called Efgart(KIH)-(G4S)3-ABD1; Efgart(H)-(G4S)3-ABD1/Efgart(K)

Columns and labels:
human serum albumin [1] = molecular target: T1, human serum albumin (human, UniProt P02768 25-609); test: SPR (Biacore 8K), Fc fusion captured by anti-human Fc on CM5, HSA as analyte, 25 C, pH 6.0, 1:1 fit
T1 construct: also called HSA
Protocol: (§1) Following a stabilization period in running buffer, the Fc fusion molecules at 20 nM were captured onto flow cell 2 (active) for 60 sec at a flow rate of 30 uL/min. […] Samples were injected in a multi-cycle manner over freshly captured Fc fusion molecule, by regenerating the capture surfaces with injection of 10 mM glycine pH 1.5 for 30 sec at a flow rate of 30 μL/min. The data was processed and analyzed with Biacore Insight Evaluation Software Version 2.0.15.12933 (GE Healthcare) as follows. […] The responses from the two buffer blank injections were then subtracted from the reference subtracted data (2-1) to yield double-referenced data, which were fit to a 1:1 binding model to determine the apparent association (ka) and dissociation rate constants (kd). Their ratio provided the apparent equilibrium dissociation constant or affinity constant (KD=kd/ka).

human serum albumin [2] = molecular target: T1, human serum albumin; test: SPR (Biacore 8K), Fc fusion captured by anti-human Fc on CM5, HSA as analyte, 25 C, pH 7.4, 1:1 fit
Protocol: as §1

[3] = molecular target: T2, Recombinant in-house Human FcRn protein (human, UniProt P55899 24-297; P61769 21-119, limits assumed); test: SPR (Biacore 8K), Fc fusion captured by anti-human Fc on CM5, huFcRn as analyte, 25 C, pH 7.4, 1:1 fit
T2 construct: also called huFCRN; HuFcRn
Protocol: as §1

[4] = molecular target: T2, Recombinant in-house Human FcRn protein; test: SPR (Biacore 8K), Fc fusion captured by anti-human Fc on CM5, huFcRn as analyte, 25 C, pH 6.0, 1:1 fit
Protocol: as §1

T1 sequence (P02768 25-609 limits assumed): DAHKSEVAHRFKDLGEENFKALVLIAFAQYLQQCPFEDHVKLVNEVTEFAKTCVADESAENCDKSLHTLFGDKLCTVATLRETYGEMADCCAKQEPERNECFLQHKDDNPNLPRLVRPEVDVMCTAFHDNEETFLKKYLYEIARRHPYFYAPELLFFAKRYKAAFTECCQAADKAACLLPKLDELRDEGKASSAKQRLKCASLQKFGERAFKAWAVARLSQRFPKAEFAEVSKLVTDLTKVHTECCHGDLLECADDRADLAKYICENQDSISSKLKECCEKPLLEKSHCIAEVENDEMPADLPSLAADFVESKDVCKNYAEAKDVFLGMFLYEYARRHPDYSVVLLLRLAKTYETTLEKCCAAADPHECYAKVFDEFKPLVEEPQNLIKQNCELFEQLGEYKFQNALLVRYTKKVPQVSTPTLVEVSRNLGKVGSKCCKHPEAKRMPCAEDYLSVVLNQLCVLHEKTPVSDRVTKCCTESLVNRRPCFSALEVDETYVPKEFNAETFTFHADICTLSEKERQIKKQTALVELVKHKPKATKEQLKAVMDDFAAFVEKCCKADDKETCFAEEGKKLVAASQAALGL
T2 sequence (P55899 24-297 limits assumed, chain 1 of 2): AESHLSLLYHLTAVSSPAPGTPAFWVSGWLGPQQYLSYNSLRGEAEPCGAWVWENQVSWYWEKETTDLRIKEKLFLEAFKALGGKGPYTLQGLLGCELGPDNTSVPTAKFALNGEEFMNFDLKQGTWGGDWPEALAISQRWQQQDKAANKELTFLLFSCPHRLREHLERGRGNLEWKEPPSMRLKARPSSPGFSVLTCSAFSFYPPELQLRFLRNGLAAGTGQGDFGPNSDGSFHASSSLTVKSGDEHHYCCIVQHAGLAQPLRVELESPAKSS
T2 sequence (P61769 21-119 limits assumed, chain 2 of 2): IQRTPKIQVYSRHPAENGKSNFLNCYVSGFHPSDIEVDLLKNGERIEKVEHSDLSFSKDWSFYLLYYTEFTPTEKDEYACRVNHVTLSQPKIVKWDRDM

Binder | Kd (human serum albumin [1]) | Kd (human serum albumin [2]) | Kd [3] | Kd [4]
B1 | 33.8 nM | 45.6 nM | 634 nM | 2.1 nM
B2 | 6.32 nM |  | 375 nM | 8.07 nM
B3 | 7.26 nM | 12 nM | 371 nM | 6.69 nM
B4 | 33.4 nM | 54.6 nM | 492 nM | 11.3 nM

From patent US20250152704A1 (PARAGON THERAPEUTICS, published 2025)
